US12460245B2, “Luciferase sequences utilizing infrared-emitting substrates to produce enhanced luminescence” (Promega Corporation, priority 2014, dated 2025)
Substitutions are numbered along the chain they refer to. Numbers in names are those of the source. Where “and” joins values, the source holds several entries; their conditions need not be identical. Equal entries are not always repeated. One block for each molecule: values may come before it.

What was measured:
[1] = system: ATG 1240; test: Mimicry of tissue attenuation using long pass filters, transfected HEK293T cells; type: cell-based, click beetle; details: HEK293T cells expressing ATG 1240
Protocol: A transfection complex was prepared by diluting ATG 1240 DNA or Luc2 DNA (pF4Ag-Luc2) to 100 ng/μL, and then 2× serial dilutions prepared in 50 ng/μL pGEM carrier DNA. 40 μL of the diluted DNA was the mixed with 160 μL phenol red free OptiMEM and 16 μL of FuGENE® HD and incubated for 20 min. 5 μL of each transfection complex was added to wells of a 96-well black assay plates and then 100 μL of diluted HEK293T cells (200,000/mL in DMEM+10% FBS) was added. The cells were grown overnight at 37° C. with CO2.
To assay the cells, 4 mM D-luciferin, 2 mM PBI-4813 and 2 mM PBI-4739 substrate solutions were prepared in DMEM+10% FBS. 100 μL of the D-luciferin solution was added to cells expressing Luc2 and ATG 1240, and 100 μL of PBI-4813 or PBI-4739 solution was added to ATG 1240 expressing cells. Samples were incubated for 10 min at 37° C., and luminescence detected on GloMax® Discover (heated to 37° C.) with no filter, 610 nm Long Pass (LP) filter, 665 nm LP filter, 695 nm LP filter, 720 nm LP filter or 760 nm LP filter.

[2] = Luminescence of ATG 1230 and ATG 1240 cell lysates, GloMax Discover with red-sensitive PMT; type: biochemical; details: for Luminescence, PBI-4739 / Luminescence, PBI 4813: cell lysate; for Luminescence, PBI-4739: 20 μM PBI-4739; for Luminescence, PBI 4813: 20 μM PBI-4813, GloMax Discover red-sensitive PMT; for PBI-4813/PBI-4739: ratio of luminescence with the two substrates
Protocol: (§1) 2. Cell lysates were prepared from cells containing the variants listed in Table 3 by diluting 100 μL of induced culture with 100 μL of lysis buffer (0.3×PLB, 0.006U RQ DNAse1) using a Tecan liquid handling robot. 50 μL of each cell lysate was assayed with either PBI-4813 or PBI-4739 (20 μM in Bright-Glo™ assay buffer containing 1 mM ATP), and luminescence detected on an ImageQuant CCD imager. Luminescence of the variants was normalized to CBR luciferase (FIG. 8).
Variant clones identified as ATG 1230 (CBR+389F+444R+251S) and ATG 1240 (CBR+334S+351R) were further evaluated for their luminescence, spectral property, Km and live cell kinetics with either PBI-4813 or PBI-4739. These variants were cloned and expressed as described in Example 2 except the template was pF4Ag-CBR, i.e., no HALOTAG®.
A. Luminescence with PBI-4813 and PBI-4739. Cell lysates of these variant clones were prepared and assayed for luminescence as described in Example 6. Luminescence was detected on a GloMax® Discover equipped with a red-sensitive photomultiplier tube (PMT) and compared to CBR luciferase (Table 5 and FIG. 10).

[3] = Substrate inhibition of luciferase activity at high substrate concentration; type: biochemical; details: PBI-4813 at concentrations greater than ten times the Km
[4] = Combinations of H-acceptor and library screen mutants, lysate luminescence; type: biochemical; details: for Luminescence normalized to CBR luciferase, D-LH2 (luciferin): substrate D-LH2 (luciferin); for Luminescence normalized to CBR luciferase, PBI-4739: substrate PBI-4739; for Luminescence normalized to CBR luciferase, PBI-4813: substrate PBI-4813
Protocol: as §1
Combinations of the Hydrogen acceptor mutants identified in Example 6 were designed and prepared using the QuikChange Multi Site-Directed Mutagenesis Kit (Agilent). Variants were cloned and expressed as described in Example 2 except the template was pF4Ag-CBR. Variants were screened as described in Example 6. Luminescence of the variants using luciferin (“D-LH2”), PBI-4813, and PBI-4739 was normalized to CBR luciferase (Table 4 and FIG. 9).

[5] = Secondary library screen using ATG 1240 as template, lysate luminescence; type: biochemical; details: ATG 1240 template (WT = ATG-1240)
Protocol: A random clone library was prepared as described in Example 2 using ATG 1240 as a template. The variants were then cloned into pF4Ag (no HT7). The library was screened as follows (50 plates total):
i. Primary Screen. Cells were grown as described in Example 2. Cell lysates were prepared by diluting 100 μL of induced culture with 100 μL of lysis buffer (0.3×PLB+0.006U RQDNAse1) using a Tecan liquid handling robot. 50 μL of each cell lysate was then assayed with either PBI-4813 or PBI-4739. (20 μM substrate in Bright-Glo™ assay buffer containing 1 mM ATP). Luminescence was detected on a GloMax® Discover.
ii. Secondary Screen. Cells from each hit in the primary screen were streaked onto new plates and grown overnight. Colonies were picked in quadruplicate and cultures were grown as described in Example 2. 50 μL of each cell lysate was assayed with 50 μL of BrightGlo™ assay buffer containing 1 mM ATP and 30 μM PBI-4813 or 50 μM PBI-4739. Luminescence was detected on a GloMax® Discover Multimode Detection System (Table 6). The variants in this library were identified as having on average between 2-3 mutations per gene.

[6] = Km titration of ATG 1240 compared with CBR in live HEK293T cells; type: cell-based; details: 60 min at 37° C.
Protocol: HEK293T cells were plated at 15,000 cells/well into wells of 96-well white assay plates and grown overnight. A transfection mixture was made containing 6.6 μg of CBR or ATG-1240 DNA and 20 μL FuGENE® HD in a total volume of 310 μL OptiMEM. The mixture was incubated at room temperature for 10 min. The cells were then transfected, in triplicate, with 5 μL of transfection complex and grown overnight.
The transfected cells were then assayed. 2× serial dilutions of PBI-4813 and PBI-4739 starting at 2 mM in CO2 independent media+0.5% FBS were prepared. The growth media from the transfected cells was removed and replaced with one of the serial diluted substrate containing media. The cells were incubated 60 min at 37° C., and luminescence detected on a modified GloMax® Discover luminometer containing a red shifted PMT (see FIG. 23A and FIG. 23B). The Km of ATG 1240 was about 5 times higher than the Km of CBR with PBI-4813. The Km of ATG 1240 was about 3 times higher than the Km of CBR with PBI-4739.

[7] = Recombination of ATG 1240 library mutants, lysate luminescence; type: biochemical
Excerpt: 2. […] Luminescence of the variants was normalized to CBR luciferase (FIG. 8). Combinations of the ATG 1240 library mutants identified in Example 9 were designed and prepared using DNA shuffling ([…] USA 91:10747-10751). Briefly, a library of mutant genes was created via DNA shuffling. The mutant genes were then cloned into the pF4Ag vector and screened as described in Example 6. Luminescence was detected on a GloMax® Discover Multimode Detection System and normalized to ATG-1240 luciferase (Table 8 and FIG. 15).

[8] = listed as 251S + 389F + 444R (343 template)

Molecule: O=C(O)[C@H]1CSC(c2nc3ccc(O)cc3s2)=N1 [D-luciferin, D-(−)-2-(6′-hydroxy-2′-benzoth-iazolyl)-Δ^2-thiazolin-4-carboxylic acid]
luminescence of ATG 1240 when light is attenuated with long pass filters ([1]; 37° C.): may be brighter than with PBI-4739
luminescence of ATG 1240 at the greatest light attenuation ([1]; long pass filters): comparable

B2: ATG 1230: CBR variant I389F, S444R, G251S (SEQ ID NO: 3) (protein)
chain: MVKREKNVIYGPEPLHPLEDLTAGEMLFRALRKHSHLPQALVDVVGDESLSYKEFFEATVLLAQSLHNCGYKMNDVVSICAENNTRFFIPVIAAWYIGMIVAPVNESYIPDELCKVMGISKPQIVFTTKNILNKVLEVQSRTNFIKRIIILDTVENIHGCESLPNFISRYSDGNIANFKPLHFDPVEQVAAILCSSGTTGLPKGVMQTHQNICVRLIHALDPRYGTQLIPGVTVLVYLPFFHAFGFHITLSYFMVGLRVIMFRRFDQEAFLKAIQDYEVRSVINVPSVILFLSKSPLVDKYDLSSLRELCCGAAPLAKEVAEVAAKRLNLPGIRCGFGLTESTSAIIQTLGDEFKSGSLGRVTPLMAAKIADRETGKALGPNQVGELCFKGPMVSKGYVNNVEATKEAIDDDGWLHSGDFGYYDEDEHFYVVDRYKELIKYKGRQVAPAELEEILLKNPCIRDVAVVGIPDLEAGELPSAFVVKQPGTEITAKEVYDYLAERVSHTKYLRGGVRFVDSIPRNVTGKITRKELLKQLLVKAGGV
Luminescence, PBI-4739 [2]: 26,595
Luminescence, PBI 4813 [2]: 310,342
PBI-4813/PBI-4739 [2]: 11.7
inhibition of luciferase activity by PBI-4813 [3]: inhibits the activity
Luminescence normalized to CBR luciferase, D-LH2 (luciferin) [4, 8]: 0.6 and 0.5
Luminescence normalized to CBR luciferase, PBI-4739 [4, 8]: 1.6 and 1.4
Luminescence normalized to CBR luciferase, PBI-4813 [4, 8]: 3.4 and 3.2

B4: 5G5: ATG 1240 variant S51N + S444R (SEQ ID NO: 4) (protein)
chain: B2 chain with S51N, S251G, R334S, G351R, F389I
Luminescence normalized to ATG-1240 luciferase, D-LH2 ([7]; substrate D-LH2): 2.8
Luminescence normalized to ATG-1240 luciferase, PBI-4739 ([7]; substrate PBI-4739): 3.8
Luminescence normalized to ATG-1240 luciferase, PBI-4813 ([7]; substrate PBI-4813): 4.0

More lines, main results first:

inhibition of luciferase activity by PBI-4813 [3]: inhibits the activity
Luminescence normalized to CBR luciferase, D-LH2 (luciferin) [4]: 1.0
Luminescence normalized to CBR luciferase, PBI-4739 [4]: 1.0
Luminescence normalized to CBR luciferase, PBI-4813 [4]: 1.0
B1: CBR: click beetle red luciferase polypeptide of SEQ ID NO: 1 (protein)
chain: B2 chain with S251G, F389I, R444S
Luminescence, PBI-4739 [2]: 17,431
Luminescence, PBI 4813 [2]: 98,556
PBI-4813/PBI-4739 [2]: 5.7

inhibition of luciferase activity by PBI-4813 [3]: does not show this inhibition
B3: ATG 1240: CBR variant R334S and G351R (SEQ ID NO: 2) (protein)
chain: B2 chain with S251G, R334S, G351R, F389I, R444S
Luminescence, PBI-4739 [2]: 37,169
Luminescence, PBI 4813 [2]: 71,299
PBI-4813/PBI-4739 [2]: 1.9
Luminescence, secondary screen, PBI-4813 ([5]; 30 μM PBI-4813, 1 mM ATP): 1.2 and 1.01 and 1.0 and 0.9 and 1.02 and 0.97
Luminescence, secondary screen, PBI-4739 ([5]; 50 μM PBI-4739, 1 mM ATP): 1.1 and 1.05 and 1.0 and 0.99 and 0.97 and 0.9
Km higher than the Km of CBR with PBI-4739 [6]: about 3 times
Km higher than the Km of CBR with PBI-4813 [6]: about 5 times
